Reference: publication PMC6550519, “Regulatory Mechanism of Nicotine Degradation in Pseudomonas putida” (mBio, 2019)

How the values were obtained:
[1] = test system: NicR2 (Pseudomonas putida S16); assay: ITC; details: EMSA: 10 mM Tris-HCl, 100 mM NaCl, 27 nM DNA, 180 nM NicR2, 30 min room temperature, 9% native PAGE; ITC: PBS, 64 uM NicR2 in cell, 100 uM DNA titrant …
[2] = target: NicR2; assay: ITC, […] HSP titrated into […] purified free NicR2; supported by EMSA; type: binding, Pseudomonas putida

| Compound | Kd [1] | Kd [2] |
| --- | --- | --- |
| CACTAATTATACCGTCGTACATATCCTAAA (double strand) [R-m12 30 bp] | 140 nM | – |
| CACTAATTATACCGTCGTACATCTAATAAA (double strand) [R-m4 30 bp] | 570 nM | – |
| O=C(O)CCC(=O)c1ccc(O)nc1 [HSP, 6-hydroxy-3-succinoyl-pyridine] | – | 4950 ± 480 nM |
| CACTAATTATACCGTCGTACATATAATAAA (double strand) [wild type 30 bp (Pspm inverted repeat)] | 180 nM | – |
| CACTAATTATACCGTCGTACATAGAATAAA (double strand) [R-m3 30 bp] | 1800 nM | – |
